40 molecules from article PMC12416549 (2024) can be followed below.

For the test, the target named is T1, TNFR1 (Homo sapiens, UniProt P19438).
T1 chain: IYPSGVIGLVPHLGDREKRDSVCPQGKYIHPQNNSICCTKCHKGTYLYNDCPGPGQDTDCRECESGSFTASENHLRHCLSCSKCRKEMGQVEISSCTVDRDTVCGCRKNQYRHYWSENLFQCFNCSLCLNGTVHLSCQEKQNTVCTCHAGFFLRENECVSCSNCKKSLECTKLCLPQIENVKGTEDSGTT
Description: yeast display SC50.

Where a chain is given by its changes, count along the chain named. Numbers in names are those of the source.

B1: F31C (designed binder)
chain: MTLQELLREEALRRAEAEAFRYALELLAEKCPEQKEYLLDLAEEIESQIRSLSGVDVEDVRKFLDKEWAWVKELLAEHPAELAEVEAARAARLAELRAEVEAKVAA
In the case of B1, the “apparent Kd (screen)” value is 0.653 nM.

B2: A80D (designed binder)
chain: B1 chain with C31F, A80D
In the case of B2, the “apparent Kd (screen)” value was determined as 0.49 nM.

B3: R14W (designed binder)
chain: B1 chain with R14W, C31F
Take B3: the “apparent Kd (screen)” value was 0.539 nM.

B4: D65K (designed binder)
chain: B1 chain with C31F, D65K
With B4, the “apparent Kd (screen)” value was found to be 0.539 nM.

B5: S53V (designed binder)
chain: B1 chain with C31F, S53V
B5: the “apparent Kd (screen)” value worked out at 2.48 nM.

B6: A80G (designed binder)
chain: B1 chain with C31F, A80G
As to B6, the “apparent Kd (screen)” value was determined as 0.79 nM.

B7: E81N (designed binder)
chain: B1 chain with C31F, E81N
Regarding B7, the “apparent Kd (screen)” value was found to be 0.539 nM.

B8: A90Y (designed binder)
chain: B1 chain with C31F, A90Y
As to B8, the “apparent Kd (screen)” value was found to be 0.718 nM.

B9: T2E (designed binder)
chain: B1 chain with T2E, C31F
For B9, the “apparent Kd (screen)” value was determined as 2.73 nM.

B10: E10D (designed binder)
chain: B1 chain with E10D, C31F
B10: the “apparent Kd (screen)” value turned out to be 0.539 nM.

B11: A15P (designed binder)
chain: B1 chain with A15P, C31F
As to B11, the “apparent Kd (screen)” value was found to be 2.73 nM.

B12: A42D (designed binder)
chain: B1 chain with C31F, A42D
Turning to B12, the “apparent Kd (screen)” value was 1.86 nM.

B13: R14E (designed binder)
chain: B1 chain with R14E, C31F
Consider B13, for which the “apparent Kd (screen)” value was determined as 0.653 nM.

B14: V104E (designed binder)
chain: B1 chain with C31F, V104E
Consider B14, for which the “apparent Kd (screen)” value was 0.653 nM.

B15: A19N (designed binder)
chain: B1 chain with A19N, C31F
Take B15: the “apparent Kd (screen)” value worked out at 0.446 nM.

B16: A83T (designed binder)
chain: B1 chain with C31F, A83T
Take B16: the “apparent Kd (screen)” value stood at 0.593 nM.

B17: V100F (designed binder)
chain: B1 chain with C31F, V100F
As to B17, the “apparent Kd (screen)” value was 0.49 nM.

B18: A17D (designed binder)
chain: B1 chain with A17D, C31F
B18: the “apparent Kd (screen)” value came to 0.79 nM.

B19: W68R (designed binder)
chain: B1 chain with C31F, W68R
Regarding B19, the “apparent Kd (screen)” value is 2.48 nM.

B20: W70I (designed binder)
chain: B1 chain with C31F, W70I
For the molecule B20, the “apparent Kd (screen)” value turned out to be 13.8 nM.

B21: L96T (designed binder)
chain: B1 chain with C31F, L96T
In the case of B21, the “apparent Kd (screen)” value stood at 0.49 nM.

B22: V60W (designed binder)
chain: B1 chain with C31F, V60W
Regarding B22, the “apparent Kd (screen)” value was determined as 0.79 nM.

B23: V100N (designed binder)
chain: B1 chain with C31F, V100N
As for B23, the “apparent Kd (screen)” value came out at 0.593 nM.

B24: Q4S (designed binder)
chain: B1 chain with Q4S, C31F
Regarding B24, the “apparent Kd (screen)” value was 1.16 nM.

B25: E33S (designed binder)
chain: B1 chain with C31F, E33S
Turning to B25, the “apparent Kd (screen)” value came to 0.49 nM.

B26: A28M (designed binder)
chain: B1 chain with A28M, C31F
For the molecule B26, the “apparent Kd (screen)” value worked out at 9.41 nM.

B27: A98G (designed binder)
chain: B1 chain with C31F, A98G
For the molecule B27, the “apparent Kd (screen)” value stood at 0.718 nM.

B28: A69G (designed binder)
chain: B1 chain with C31F, A69G
In the case of B28, the “apparent Kd (screen)” value amounted to 0.653 nM.

B29: L64C (designed binder)
chain: B1 chain with C31F, L64C
Take B29: the “apparent Kd (screen)” value is 2.48 nM.

B30: K72Y (designed binder)
chain: B1 chain with C31F, K72Y
B30: the “apparent Kd (screen)” value is 0.593 nM.

B31: A76G (designed binder)
chain: B1 chain with C31F, A76G
Consider B31, for which the “apparent Kd (screen)” value turned out to be 0.49 nM.

B32: D65N (designed binder)
chain: B1 chain with C31F, D65N
As to B32, the “apparent Kd (screen)” value is 0.49 nM.

B33: F63S (designed binder)
chain: B1 chain with C31F, F63S
As to B33, the “apparent Kd (screen)” value was 0.956 nM.

B34: F31W (designed binder)
chain: B1 chain with C31W
Consider B34, for which the “apparent Kd (screen)” value amounted to 1.16 nM.

B35: E18I (designed binder)
chain: B1 chain with E18I, C31F
On to B35, for which the “apparent Kd (screen)” value worked out at 0.539 nM.

B36: A88L (designed binder)
chain: B1 chain with C31F, A88L
As to B36, the “apparent Kd (screen)” value worked out at 0.49 nM.

B37: A80C (designed binder)
chain: B1 chain with C31F, A80C
Consider B37, for which the “apparent Kd (screen)” value was determined as 0.49 nM.

B38: E36S (designed binder)
chain: B1 chain with C31F, E36S
Take B38: the “apparent Kd (screen)” value stood at 0.405 nM.

B39: A91E (designed binder)
chain: B1 chain with C31F, A91E
Turning to B39, the “apparent Kd (screen)” value was 0.593 nM.

B40: A11T (designed binder)
chain: B1 chain with A11T, C31F
Take B40: the “apparent Kd (screen)” value stood at 0.593 nM.
